Measured values as given in PMC12101541.

What was measured:
[1] = target: TgSkp1-poly-Ser (TgSkp1 with the CTR replaced by poly-serine) (Toxoplasma gondii); assay: AUC; sedimentation velocity, 50,000 rpm, 20 °C, 50 mM K phosphate (pH 7.4), 25 mM KCl (standard buffer); Sw isotherm fitted with a monomer-dimer self-association model (SedPhat); dimer to monomers
[2] = target: TgSkp1Δloop (TgSkp1 with the internal disordered loop replaced by GGSG) (Toxoplasma gondii); assay: AUC; sedimentation velocity as in the standard experiment but with 600 mM KCl (high salt, ionic strength of 710 mM); Sw isotherm, monomer-dimer model; dimer to monomers
[3] = target: TgSkp1Δloop (TgSkp1 with the internal disordered loop replaced by GGSG) (Toxoplasma gondii); assay: AUC; sedimentation velocity, 50,000 rpm, 20 °C, 50 mM K phosphate (pH 7.4), 25 mM KCl (standard buffer); Sw isotherm fitted with a monomer-dimer self-association model (SedPhat); dimer to monomers
[4] = target: GGlFGGn-TgSkp1 (fully glycosylated TgSkp1, GalGlcFucGalGlcNAc glycan at Hyp154) (Toxoplasma gondii); assay: as above
[5] = target: TgSkp1ΔloopΔCTR (TgSkp1 with the internal loop replaced by GGSG and the CTR deleted) (Toxoplasma gondii); assay: AUC; sedimentation velocity as in the standard experiment but with 600 mM KCl (high salt, ionic strength of 710 mM); Sw isotherm, monomer-dimer model; dimer to monomers
[6] = target: TgSkp1ΔloopΔCTR (TgSkp1 with the internal loop replaced by GGSG and the CTR deleted) (Toxoplasma gondii); assay: AUC; sedimentation velocity, 50,000 rpm, 20 °C, 50 mM K phosphate (pH 7.4), 25 mM KCl (standard buffer); Sw isotherm fitted with a monomer-dimer self-association model (SedPhat); dimer to monomers
[7] = target: full-length TgSkp1 (Skp1 from Toxoplasma gondii), unmodified (Toxoplasma gondii); assay: as above
[8] = target: TgSkp1ΔCTR (TgSkp1 lacking the C-terminal region) (Toxoplasma gondii); assay: as above

## TgSkp1-poly-Ser (TgSkp1 with the CTR replaced by poly-serine)
[1]
  Kd: 900 nM
  stoichiometry N: 2

## TgSkp1Δloop (TgSkp1 with the internal disordered loop replaced by GGSG) (natural protein)
[2]
  Kd: 8.5 µM
[3]
  Kd: 200 nM
  stoichiometry N: 2

## GGlFGGn-TgSkp1 (fully glycosylated TgSkp1, GalGlcFucGalGlcNAc glycan at Hyp154) (natural protein)
[4]
  Kd: 400 nM
  stoichiometry N: 2

## TgSkp1ΔloopΔCTR (TgSkp1 with the internal loop replaced by GGSG and the CTR deleted) (domain or fragment)
[5]
  Kd: 1900 nM
[6]
  Kd: 2400 nM
  stoichiometry N: 2

## full-length TgSkp1 (Skp1 from Toxoplasma gondii), unmodified (natural protein)
[7]
  Kd: 50 nM
  degree of dissociation at 300 nM: 18%
  stoichiometry N: 2

## TgSkp1ΔCTR (TgSkp1 lacking the C-terminal region) (domain or fragment)
[8]
  Kd: 900 nM
  stoichiometry N: 2
